Measured values published in patent publication US20240158477A1.

Tests used:
[1] = biological target: RBD-Fc (SARS-CoV-2 S protein amino acids 319-541 with human IgG1 Fc) (SARS-CoV-2; human) (UniProt P0DTC2)
[2] = biological target: SARS-CoV-2 S protein (wildtype) (SARS-CoV-2) (UniProt P0DTC2); assay: cell-based or functional assay

Fc tagged VHH72 (Fc fusion) gave an EC50 (read off the curve) [1] of 0.2 nM and an IC50, authentic SARS-CoV-2 neutralization on Vero-E6 cells (viral RNA by RT-PCR) [2] of 13.8 nM.
